For test [1], the target named is T1, recombinant SARS-CoV-2 Receptor Binding Domain (RBD) with a his tag (ATUM, Cat. 65639.1.a) (SARS-CoV-2, UniProt P0DTC2 319-541).
The target of test [2] is T1, recombinant SARS-CoV-2 Receptor Binding …. Description: ELISA on coated RBD-his.
Description: Plates were then washed 5 times with 0.05% PBS-Tween and blocked with 2% BSA-PBS. […] Luminescent data were collected on an EnVision plate reader (Perkin-Elmer) and analyzed with GraphPad Prism using a 4-parameter logistic model.

What is called EC50 (read off the curve) is the midpoint of the concentration-response curve. The EC50 is the concentration at which the effect is half-maximal.

B1: anti-SARS-CoV2-09 IgM (antibody)
VH: QVQLHQWGAGLLKPSETLSRTCAVYGGSFSGYYWTWIRQAPGKGLEWIGEINHGGSTRYNPSLESRVSISVDTSKKQFSLELRSVTAADTAIYYCARGYDTNWYGDGYNWFDPWDRGTLVTVSS
VL: QSALTQDPSVSVALGQTVRITCQGDSLRGSFASWYRQKPGQAPVLVIFGINNRPSGVPDRFSGSSSGNTASLTITGAQAEDEADYYCNSRESNSNRILFGGGTKVTVL
chain: not shown
For the molecule B1, the 50% effective concentration (EC50 (read off the curve)) in test [1] is approximately 0.4 nM. Further, the EC50 in test [2] is 0.3 nM.

Source of the values: patent US20220267415A1 (University of Texas, published 2022).
